For assay [1], the target named is T1, recombinant His-tagged human tryptase beta 1 monomer (human, UniProt Q15661 31-275).
T1 construct: also called His6-tagged tryptase monomer; human tryptase b1 monomer
Description: SPR (BIAcore T200); IgG1 captured by anti-human Fc, His-tagged monomer injected. The method, then:
(§1) The assay can use a BIAcore® T200 or an equivalent device. Briefly, BIAcore® Series S CM5 sensor chips (or equivalent sensor chips) are immobilized with monoclonal mouse anti-human IgG (Fc) antibody and anti-tryptase antibodies are subsequently captured on the flow cell. Serial 3-fold dilutions of the human tryptase beta 1 monomer are injected at a flow rate of 30 μl/min. Each sample is analyzed with 3 min association and 10 min dissociation. The assay is performed at 25° C. After each injection, the chip is regenerated using 3 M MgCl₂. Binding response is corrected by subtracting the response units (RU) from a flow cell capturing an irrelevant IgG at similar density. A 1:1 Languir model of simultaneous fitting of kₒₙ and koff is used for kinetics analysis.
(§2) In this experiment, all the humanized variants were expressed as IgG by transient transfection of 293 cells. IgG was purified with protein G affinity chromatography. The affinity of each variant for recombinant His-tagged human tryptase beta 1 monomer (SEQ ID NO: 128) was determined by SPR analysis using a BIAcore® T200. BIAcore® Series S CM5 sensor chips were immobilized with monoclonal mouse anti-human IgG (Fc) antibody (Human antibody capture kit from GE Healthcare) and anti-tryptase variants were subsequently captured on each flow cell. Serial 3-fold dilutions of the human tryptase beta 1 monomer were injected at a flow rate of 30 μl/min. Each sample was analyzed with 3 min association and 10 min dissociation. After each injection, the chip was regenerated using 3 M MgCl₂. Binding response was corrected by subtracting the response units (RU) from a flow cell capturing an irrelevant IgG at similar density. A 1:1 Languir model of simultaneous fitting of kₒₙ and koff was used for kinetics analysis.

In assay [2] the target is T2, human tryptase beta 3 (human, UniProt P20231 31-275). Description: cell-based or functional assay.
In assay [3] the target is T2, human tryptase beta 3. Briefly: SPR, protocol as for tryptase beta 1. The method, then: as §2
Assay [4] addresses T3, recombinant human tryptase beta 1 tetramer (wild type, active) (human, UniProt Q15661 31-275).
T3 construct: Non-covalent homotetramer made by enterokinase removal of the His6 tag in the presence of heparin or dextran sulfate; In the huE104.v1 crystal the active sites were modified with Glu-Gly-Arg-chloromethyl ketone; also called WT tetrameric tryptase; active tetrameric tryptase beta 1
Briefly: ELISA on biotinylated human tryptase beta 1 captured on NeutrAvidin, with heparin to keep the tetramer.

The target of assay [5] is T3, recombinant human tryptase beta 1 …. Description: cell-based or functional assay.
Assay [6] addresses T1, recombinant His-tagged human tryptase …. Description: SPR, tryptase beta 1 monomer.
For assay [7] the target is unchanged. Briefly: SPR, tryptase beta 1 monomer. The method, then:
as §1, §2
The source holds these as a separate data set.

These results are taken from patent US20180230233A1 (Genentech, published 2018).

Numbering of substitutions follows the chain as printed. Names and notes keep the numbering of the source.

T1 sequence (Q15661 other isoform, or with tags, fused parts or gaps): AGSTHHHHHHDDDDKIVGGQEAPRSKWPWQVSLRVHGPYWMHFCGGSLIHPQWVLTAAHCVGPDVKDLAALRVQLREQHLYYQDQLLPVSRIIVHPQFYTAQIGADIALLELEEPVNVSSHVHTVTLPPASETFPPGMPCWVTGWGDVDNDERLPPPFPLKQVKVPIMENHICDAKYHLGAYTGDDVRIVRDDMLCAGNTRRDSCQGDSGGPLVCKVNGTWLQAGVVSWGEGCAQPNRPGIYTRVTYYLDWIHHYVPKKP
T3 sequence (Q15661 31-275): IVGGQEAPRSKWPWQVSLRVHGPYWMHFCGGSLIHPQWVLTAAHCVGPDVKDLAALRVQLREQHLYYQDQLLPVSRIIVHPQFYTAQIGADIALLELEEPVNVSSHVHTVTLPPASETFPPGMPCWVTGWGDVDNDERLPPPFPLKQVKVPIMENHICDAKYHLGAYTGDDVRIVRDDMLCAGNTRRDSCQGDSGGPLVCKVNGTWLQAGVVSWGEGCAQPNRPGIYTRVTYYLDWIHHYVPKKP
T2 sequence (P20231 other isoform, or with tags, fused parts or gaps limits assumed): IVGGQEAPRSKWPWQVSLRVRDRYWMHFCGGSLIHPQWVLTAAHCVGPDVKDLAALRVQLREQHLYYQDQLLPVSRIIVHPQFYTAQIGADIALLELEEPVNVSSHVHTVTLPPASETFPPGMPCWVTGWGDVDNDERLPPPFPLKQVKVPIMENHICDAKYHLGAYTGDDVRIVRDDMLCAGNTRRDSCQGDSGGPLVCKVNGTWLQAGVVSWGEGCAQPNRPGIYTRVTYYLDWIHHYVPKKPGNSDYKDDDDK

B1: huE104.v11 IgG1 (antibody, V domains shown)
VH: EVQLVESGPGLVKPSETLSLTCTVSRFSLIGYAITWIRQPPGKGLEWIGGISSAATTFYSSWAKSRVTISVDTSKNQVSLKLSSVTAADTAVYYCARDPRGYGAALDRLDLWGQGTLVTVSS
VL: DIQMTQSPSSLSASVGDRVTITCQSIKSVYNNRLGWYQQKPGKAPKLLIYETSILTSGVPSRFSGSGSGTDFTLTISSLQPEDFATYYCAGGFDRSGDTTFGQGTKVEIK
notes: also called v11 (of huE104)
Consider B1, for which the Kd in assay [1] worked out at 0.32 nM.

B2: huE104.v4 IgG1 (antibody, V domains shown)
VH: EVQLVESGGGLVQPGGSLRLSCAVSRFSLIGYAITWVRQAPGKGLEWIGGISSAATTFYSSWAKSRSTISRDTSKNTVYLQMNSLRAEDTAVYFCARDPRGYGAALDRLDLWGQGTLVTVSS
VL: B1 VL
Regarding B2, in assay [1], the Kd is 0.44 nM.

B3: huE104.v10 IgG1 (chimeric light chain) (antibody, V domains shown)
VH: B1 VH with V71R
VL: AAVLTQTPASVSAAVGGTVSISCQSIKSVYNNRLGWYQQKPGQPPKLLIYETSILTSGVPSRFKGSGSETQFTLTISDVQADDAATYFCAGGFDRSGDTTFGGGTEVVVK
For the molecule B3, in assay [1], the Kd came to 0.26 nM.

B4: huE104.v8 IgG1 (antibody, V domains shown)
VH: B2 VH
VL: B1 VL with I2A, M4L, A44P, G69E, Y88F
For the molecule B4, the Kd in assay [1] is 0.24 nM.

B5: huE104.v12 IgG1 (antibody, V domains shown)
VH: B1 VH with V71R, V78F
VL: B1 VL
notes: also called v12 (of huE104)
Take B5: the Kd in assay [1] is 0.12 nM.

B6: huE104.v2 IgG4 (S228P) (antibody)
heavy: not shown
light: DIQMTQSPSSLSASVGDRVTITCQSIKSVYNNRLGWYQQKPGKAPKLLIYETSILTSGVPSRFSGSGSGTDFTLTISSLQPEDFATYYCAGGFDRSGDTTFGQGTKVEIKRTVAAPSVFIFPPSDEQLKSGTASVVCLLNNFYPREAKVQWKVDNALQSGNSQESVTEQDSKDSTYSLSSTLTLSKADYEKHKVYACEVTHQGLSSPVTKSFNRGEC
notes: also called huE104.v2 Control
For the molecule B6, the “IC50 (nM), tryptase enzymatic assay” value in assay [2] was 2.8 nM. The same molecule showed a Kd in assay [3] of 0.13 nM.

B7: rabbit anti-tryptase monoclonal antibody E104 (antibody, V domains shown)
VH: QSLEESGGGLFKPTDTLTLTCTVSRFSLIGYAITWVRQSPENGLEWIGGISSAATTFYSSWAKSRSTITRNTNENTVTLKMTSLTAADTATYFCARDPRGYGAALDRLDLWGQGTLVTVSS
VL: B3 VL with A81C
notes: Rabbit hybridoma antibody with rabbit kappa light chain; also called rab.E104; clone E104
As to B7, the binding result in assay [4] is “binds”.

B8: hu31A.v11 W100F (antibody, name in Kabat numbering, V domains shown)
VH: EVQLVESGGGLVQPGGSLRLSCAASGFTFSDYGMVWVRQAPGKGLEWVAFISSGSSTVYYADTMKGRFTISRDNSKNTLYLQMNSLRAEDTAVYYCTRRNYDDFYFDVWGQGTLVTVSS
VL: DIQMTQSPSSLSASVGDRVTITCSASSSVTYMYWYQQKPGKSPKPWIYRTSDLASGVPSRFSGSGSGTDFTLTISSLQPEDFATYYCQHYHSYPLTFGQGTKVEIK
notes: also called W100F variant
B8: the “IC50 as fold increase compared to hu31A.v11 wild type” value in assay [5] came to 2.5 fold. Also, in assay [6], the “fold faster off-rate (Koff) compared to wild-type hu31A.v11” value is roughly 100 fold. Besides, the “KD as fold increase compared to hu31A.v11 wild type” value (“KD as fold increase” below) in assay [7] was found to be 80 fold.

B9: hu31A.v11 W100V (antibody, name in Kabat numbering, V domains shown)
VH: B8 VH with F104V
VL: B8 VL
notes: Position 100 is Kabat numbering; also called W100V variant
On to B9, for which the “KD as fold increase” value in assay [7] was determined as 821 fold.

B10: hu31A.v11 W100L (antibody, name in Kabat numbering, V domains shown)
VH: B8 VH with F104L
VL: B8 VL
notes: also called W100L variant
In the case of B10, the “KD as fold increase” value in assay [7] is 2410 fold.

B11: hu31A.v11 W100Y (antibody, name in Kabat numbering, V domains shown)
VH: B8 VH with F104Y
VL: B8 VL
notes: Position 100 is Kabat numbering; also called W100Y variant
As to B11, the “IC50 as fold increase compared to hu31A.v11 wild type” value in assay [5] turned out to be 3.46 fold. For the same molecule, in assay [7], the “KD as fold increase” value amounted to 234 fold.

B12: hu31A.v11 W100R (antibody, name in Kabat numbering, V domains shown)
VH: B8 VH with F104R
VL: B8 VL
notes: also called W100R variant
For the molecule B12, in assay [7], the “KD as fold increase” value was 54 fold.
